# From the supplement of paper PMC7125110
# ± gives the standard error. Fewer inactive variants are shown than the library holds.
# B1: glmS ribozyme (parent)
# chain: AUAAAAGCGCCAGAACUACAGAAAUGUAGUUGACGAGGAGGAGGUUUAUCGAAUUUUCGGCGGAUGCCUCCAAA
# What was measured:
# Conditions in all cases: with glucosamine-6-phosphate
# glucosamine-6-phosphate [1] = variants of: B1; test: self-cleavage kobs at 40 uM GlcN6P; higher = faster cleavage; RNA array
# How it was run: (§1)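 Tiles of sequenced MiSeq chips were imaged over ~14 h at 37 °C. On them, barcoded ribozyme variants had been transcribed in situ by E. coli RNA polymerase and were tracked via a hybridised Cy3 probe while glucosamine-6-phosphate (40 μM to 10 mM) in HEPES/KCl/Mg(OAc)2 buffer flowed in. Per-tile medians, normalised to baseline and to non-cleaving reference variants, were fit to one- or two-exponential decays for kobs, and weighted Michaelis–Menten fits gave kcat and KM.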
# glucosamine-6-phosphate [2] = variants of: B1; test: self-cleavage kobs at 160 uM GlcN6P; higher = faster cleavage; RNA array
# How it was run: as §1
# glucosamine-6-phosphate [3] = variants of: B1; test: self-cleavage kobs at 640 uM GlcN6P; higher = faster cleavage; RNA array
# How it was run: as §1
# glucosamine-6-phosphate [4] = variants of: B1; test: self-cleavage kobs at 2500 uM GlcN6P; higher = faster cleavage; RNA array
# How it was run: as §1
# glucosamine-6-phosphate [5] = variants of: B1; test: self-cleavage kobs at 10000 uM GlcN6P; higher = faster cleavage; RNA array
# How it was run: as §1
Variant,self-cleavage kobs at 40 uM GlcN6P (glucosamine-6-phosphate [1]),self-cleavage kobs at 160 uM GlcN6P (glucosamine-6-phosphate [2]),self-cleavage kobs at 640 uM GlcN6P (glucosamine-6-phosphate [3]),self-cleavage kobs at 2500 uM GlcN6P (glucosamine-6-phosphate [4]),self-cleavage kobs at 10000 uM GlcN6P (glucosamine-6-phosphate [5])
G35C G59A,< 1e-05 s⁻¹,< 1e-05 s⁻¹,< 1e-05 s⁻¹,< 1e-05 s⁻¹,–
A33U G40C C71A,< 1e-05 s⁻¹,–,–,–,–
A33G G40C C70U,< 1e-05 s⁻¹,–,–,–,< 1e-05 s⁻¹
G35U C50G,3.53e-05 ± 1.5e-05 s⁻¹,9.05e-05 ± 2.7e-05 s⁻¹,–,0.000141 ± 3.9e-05 s⁻¹,–
G35C G44A,< 1e-05 s⁻¹,–,–,–,< 1e-05 s⁻¹
C34G G62U,< 1e-05 s⁻¹,–,–,< 1e-05 s⁻¹,< 1e-05 s⁻¹
C34G G62A,< 1e-05 s⁻¹,–,< 1e-05 s⁻¹,< 1e-05 s⁻¹,< 1e-05 s⁻¹
G35A A48C,< 1e-05 s⁻¹,< 1e-05 s⁻¹,< 1e-05 s⁻¹,< 1e-05 s⁻¹,< 1e-05 s⁻¹
G35C C61G,< 1e-05 s⁻¹,< 1e-05 s⁻¹,< 1e-05 s⁻¹,–,–
C34U U45A,< 1e-05 s⁻¹,< 1e-05 s⁻¹,< 1e-05 s⁻¹,< 1e-05 s⁻¹,< 1e-05 s⁻¹
C34A A52G,< 1e-05 s⁻¹,< 1e-05 s⁻¹,< 1e-05 s⁻¹,< 1e-05 s⁻¹,< 1e-05 s⁻¹
G35C A64U,< 1e-05 s⁻¹,< 1e-05 s⁻¹,< 1e-05 s⁻¹,< 1e-05 s⁻¹,< 1e-05 s⁻¹
G35C C61G C68G,7.74e-05 ± 3e-05 s⁻¹,–,–,–,–
G35U G37C G40U U56A U65A,< 1e-05 s⁻¹,–,–,–,–
G35U A39G,< 1e-05 s⁻¹,< 1e-05 s⁻¹,< 1e-05 s⁻¹,< 1e-05 s⁻¹,< 1e-05 s⁻¹
A33U A48G A53U U57C,< 1e-05 s⁻¹,–,–,–,< 1e-05 s⁻¹
C34U G38U,< 1e-05 s⁻¹,< 1e-05 s⁻¹,< 1e-05 s⁻¹,–,< 1e-05 s⁻¹
A33C G38C,< 1e-05 s⁻¹,< 1e-05 s⁻¹,< 1e-05 s⁻¹,< 1e-05 s⁻¹,–
A33C G38A,< 1e-05 s⁻¹,< 1e-05 s⁻¹,< 1e-05 s⁻¹,< 1e-05 s⁻¹,< 1e-05 s⁻¹
C34A G44U G51C,< 1e-05 s⁻¹,–,< 1e-05 s⁻¹,< 1e-05 s⁻¹,< 1e-05 s⁻¹
A33C C58A,< 1e-05 s⁻¹,–,< 1e-05 s⁻¹,–,–
A33C G63U C67U,< 1e-05 s⁻¹,–,–,–,–
C34A G41C A53G U54A U56G,< 1e-05 s⁻¹,–,–,–,< 1e-05 s⁻¹
A33G C58U,< 1e-05 s⁻¹,–,–,< 1e-05 s⁻¹,< 1e-05 s⁻¹

Variant,self-cleavage kobs at 40 uM GlcN6P (glucosamine-6-phosphate [1]),self-cleavage kobs at 160 uM GlcN6P (glucosamine-6-phosphate [2]),self-cleavage kobs at 640 uM GlcN6P (glucosamine-6-phosphate [3]),self-cleavage kobs at 2500 uM GlcN6P (glucosamine-6-phosphate [4]),self-cleavage kobs at 10000 uM GlcN6P (glucosamine-6-phosphate [5])
A33G C58A,< 1e-05 s⁻¹,–,–,–,< 1e-05 s⁻¹
C34U G37C A53G,< 1e-05 s⁻¹,–,–,–,–
G35C U49A,< 1e-05 s⁻¹,–,< 1e-05 s⁻¹,< 1e-05 s⁻¹,–
G35A U47A U57C G66A,< 1e-05 s⁻¹,–,–,–,–
A33U A64U,< 1e-05 s⁻¹,–,< 1e-05 s⁻¹,–,< 1e-05 s⁻¹
C34A C61U C67U,< 1e-05 s⁻¹,–,–,–,< 1e-05 s⁻¹
C34A G37U G44U,< 1e-05 s⁻¹,–,–,–,–
A33G G41U,< 1e-05 s⁻¹,< 1e-05 s⁻¹,< 1e-05 s⁻¹,–,< 1e-05 s⁻¹
A33G G41A,< 1e-05 s⁻¹,< 1e-05 s⁻¹,–,–,< 1e-05 s⁻¹
C34U U55G C71U,< 1e-05 s⁻¹,–,–,–,–
C34U C58G U65G C70A,0.000236 ± 8.2e-05 s⁻¹,–,0.000187 ± 7.4e-05 s⁻¹,–,0.000376 ± 0.00015 s⁻¹
A36C G37C G41C C50A A52C C71U,< 1e-05 s⁻¹,–,–,–,–
G35A A36U G37U A39G U54C C68U,5.13e-05 ± 2.2e-05 s⁻¹,–,–,–,–
A33G U65C C71A,< 1e-05 s⁻¹,–,< 1e-05 s⁻¹,–,–
G35C C58A C71A,< 1e-05 s⁻¹,–,–,–,< 1e-05 s⁻¹
G35A C50G C61G,0.000147 ± 3e-05 s⁻¹,–,–,–,0.000252 ± 4.7e-05 s⁻¹
C34A A53C,< 1e-05 s⁻¹,–,< 1e-05 s⁻¹,< 1e-05 s⁻¹,< 1e-05 s⁻¹
G35A U47C,< 1e-05 s⁻¹,< 1e-05 s⁻¹,< 1e-05 s⁻¹,< 1e-05 s⁻¹,–
G32U U56A C61G C67A,7.99e-05 ± 3e-05 s⁻¹,–,–,–,–
A36C A39G G66A,< 1e-05 s⁻¹,–,–,–,< 1e-05 s⁻¹
A33U U46A U47G,< 1e-05 s⁻¹,–,–,–,–
A36C G51A,< 1e-05 s⁻¹,–,–,–,< 1e-05 s⁻¹
C34A G35U G37A U49A U56C,< 1e-05 s⁻¹,–,< 1e-05 s⁻¹,< 1e-05 s⁻¹,< 1e-05 s⁻¹
A33U A53U A64U,< 1e-05 s⁻¹,–,–,–,< 1e-05 s⁻¹

Variant,self-cleavage kobs at 40 uM GlcN6P (glucosamine-6-phosphate [1]),self-cleavage kobs at 160 uM GlcN6P (glucosamine-6-phosphate [2]),self-cleavage kobs at 640 uM GlcN6P (glucosamine-6-phosphate [3]),self-cleavage kobs at 2500 uM GlcN6P (glucosamine-6-phosphate [4]),self-cleavage kobs at 10000 uM GlcN6P (glucosamine-6-phosphate [5])
A33U G40A G62C,< 1e-05 s⁻¹,–,–,–,–
A33C G62C,< 1e-05 s⁻¹,–,< 1e-05 s⁻¹,< 1e-05 s⁻¹,< 1e-05 s⁻¹
G35C G63U C71A,< 1e-05 s⁻¹,–,–,< 1e-05 s⁻¹,< 1e-05 s⁻¹
A33C U65G,< 1e-05 s⁻¹,< 1e-05 s⁻¹,< 1e-05 s⁻¹,–,–
A33C G40C,< 1e-05 s⁻¹,< 1e-05 s⁻¹,< 1e-05 s⁻¹,–,–
G35A A42G,< 1e-05 s⁻¹,< 1e-05 s⁻¹,< 1e-05 s⁻¹,< 1e-05 s⁻¹,< 1e-05 s⁻¹
A36C A48C U56A,< 1e-05 s⁻¹,–,–,–,–
G35C G62A,< 1e-05 s⁻¹,< 1e-05 s⁻¹,< 1e-05 s⁻¹,< 1e-05 s⁻¹,< 1e-05 s⁻¹
C34A G40U G66A,< 1e-05 s⁻¹,< 1e-05 s⁻¹,–,–,< 1e-05 s⁻¹
G35U A48C,< 1e-05 s⁻¹,–,–,< 1e-05 s⁻¹,< 1e-05 s⁻¹
A33G G44U C67U,< 1e-05 s⁻¹,–,–,–,< 1e-05 s⁻¹
G35C A39G U49G C50U,< 1e-05 s⁻¹,–,< 1e-05 s⁻¹,< 1e-05 s⁻¹,< 1e-05 s⁻¹
A33G C34U C68U,< 1e-05 s⁻¹,–,–,–,–
C34G G40A U55G,< 1e-05 s⁻¹,–,–,–,–
G35C G40A,< 1e-05 s⁻¹,< 1e-05 s⁻¹,< 1e-05 s⁻¹,< 1e-05 s⁻¹,< 1e-05 s⁻¹
A33C G51A G60C,< 1e-05 s⁻¹,–,< 1e-05 s⁻¹,–,–
C34G A36G G37A A42U G51C C67U,< 1e-05 s⁻¹,–,–,< 1e-05 s⁻¹,–
C34A G37C G60U,< 1e-05 s⁻¹,–,–,–,< 1e-05 s⁻¹
G35A G43U,< 1e-05 s⁻¹,< 1e-05 s⁻¹,< 1e-05 s⁻¹,< 1e-05 s⁻¹,< 1e-05 s⁻¹
A33C U55C U57C,< 1e-05 s⁻¹,–,–,–,< 1e-05 s⁻¹
G35A C67A,< 1e-05 s⁻¹,< 1e-05 s⁻¹,< 1e-05 s⁻¹,< 1e-05 s⁻¹,–
C34G A53U G63U A64G,< 1e-05 s⁻¹,–,–,–,< 1e-05 s⁻¹
G35U U46G,< 1e-05 s⁻¹,< 1e-05 s⁻¹,< 1e-05 s⁻¹,< 1e-05 s⁻¹,< 1e-05 s⁻¹
A33U U49C,< 1e-05 s⁻¹,< 1e-05 s⁻¹,< 1e-05 s⁻¹,–,< 1e-05 s⁻¹

Variant,self-cleavage kobs at 40 uM GlcN6P (glucosamine-6-phosphate [1]),self-cleavage kobs at 160 uM GlcN6P (glucosamine-6-phosphate [2]),self-cleavage kobs at 640 uM GlcN6P (glucosamine-6-phosphate [3]),self-cleavage kobs at 2500 uM GlcN6P (glucosamine-6-phosphate [4]),self-cleavage kobs at 10000 uM GlcN6P (glucosamine-6-phosphate [5])
G35C C68A C71U,< 1e-05 s⁻¹,–,< 1e-05 s⁻¹,< 1e-05 s⁻¹,< 1e-05 s⁻¹
C34G U54G,< 1e-05 s⁻¹,< 1e-05 s⁻¹,< 1e-05 s⁻¹,–,< 1e-05 s⁻¹
A36C C50A G62C,< 1e-05 s⁻¹,–,–,–,–
A33G C34A,< 1e-05 s⁻¹,–,–,–,< 1e-05 s⁻¹
A36C A64C,< 1e-05 s⁻¹,–,< 1e-05 s⁻¹,< 1e-05 s⁻¹,< 1e-05 s⁻¹
C34A G62C,< 1e-05 s⁻¹,< 1e-05 s⁻¹,< 1e-05 s⁻¹,< 1e-05 s⁻¹,< 1e-05 s⁻¹
C34G G44U,< 1e-05 s⁻¹,< 1e-05 s⁻¹,< 1e-05 s⁻¹,–,< 1e-05 s⁻¹
A33G C61G,< 1e-05 s⁻¹,< 1e-05 s⁻¹,< 1e-05 s⁻¹,–,< 1e-05 s⁻¹
A33G C61U,< 1e-05 s⁻¹,–,–,–,< 1e-05 s⁻¹
A33U U49A C71U,< 1e-05 s⁻¹,–,–,–,< 1e-05 s⁻¹
G32U G44U U45A,< 1e-05 s⁻¹,–,–,–,–
G35C G43A,< 1e-05 s⁻¹,< 1e-05 s⁻¹,–,< 1e-05 s⁻¹,–
G35A G40C,< 1e-05 s⁻¹,< 1e-05 s⁻¹,< 1e-05 s⁻¹,< 1e-05 s⁻¹,< 1e-05 s⁻¹
G35C G38C C58A,< 1e-05 s⁻¹,< 1e-05 s⁻¹,–,< 1e-05 s⁻¹,–
A33U G38U G40U,< 1e-05 s⁻¹,–,–,–,–
C34U U65A C67G,0.000176 ± 7.1e-05 s⁻¹,–,–,–,–
G32U U49G A53C,< 1e-05 s⁻¹,–,–,–,–
A33U A53U C61A U69A,< 1e-05 s⁻¹,–,–,–,–
G35C C58A,< 1e-05 s⁻¹,–,< 1e-05 s⁻¹,–,< 1e-05 s⁻¹
A33G G59C,< 1e-05 s⁻¹,< 1e-05 s⁻¹,< 1e-05 s⁻¹,< 1e-05 s⁻¹,< 1e-05 s⁻¹
G32U G44U,< 1e-05 s⁻¹,< 1e-05 s⁻¹,< 1e-05 s⁻¹,–,–
A36C C58U,< 1e-05 s⁻¹,–,< 1e-05 s⁻¹,–,< 1e-05 s⁻¹
